Test results reported in PMC9652321, “Structural basis of human SNAPc recognizing proximal sequence element of snRNA promoter”.
Residue numbers refer to the chain shown, from its start.

Assays:
Experiment in all cases: SPR; EMSA: 100 mM KCl, 25 mM HEPES-K pH 7.6, 12.5 mM MgCl2, 10 uM ZnCl2, 0.1 mM EDTA, 10% glycerol, 3 mM DTT, 0.5 mM PMSF, 50 nM DNA, RT 30 min; SPR: 100 mM KCl, 12.5 mM MgCl2, 10 uM ZnCl2, 0.1 mM EDTA, 0.05% P20, 25 C
Conditions in all cases: protein: recombinant; tags: as P1; copies: 1;1;1;1
mSNAPc#2 SNAP50-W350A = target: T1, mSNAPc#2 SNAP50-W350A (Homo sapiens, UniProt Q5SXM2;Q92966;Q16533;O75971 1-505;1-411;1-268;1-98, W350A)
T1 sequence 1: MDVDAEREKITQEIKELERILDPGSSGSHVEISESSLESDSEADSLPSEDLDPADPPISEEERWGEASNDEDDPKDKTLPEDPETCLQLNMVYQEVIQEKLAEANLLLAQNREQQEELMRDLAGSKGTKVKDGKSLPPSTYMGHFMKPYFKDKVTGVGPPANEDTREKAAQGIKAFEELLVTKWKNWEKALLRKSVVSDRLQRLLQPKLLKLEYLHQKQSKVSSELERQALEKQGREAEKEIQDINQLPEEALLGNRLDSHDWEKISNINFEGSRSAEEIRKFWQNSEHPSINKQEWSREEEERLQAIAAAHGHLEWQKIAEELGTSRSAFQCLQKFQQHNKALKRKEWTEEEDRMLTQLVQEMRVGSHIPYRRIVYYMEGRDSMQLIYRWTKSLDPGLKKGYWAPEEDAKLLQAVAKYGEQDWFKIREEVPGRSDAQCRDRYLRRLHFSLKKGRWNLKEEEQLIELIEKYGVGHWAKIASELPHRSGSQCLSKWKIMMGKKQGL
T1 sequence 2: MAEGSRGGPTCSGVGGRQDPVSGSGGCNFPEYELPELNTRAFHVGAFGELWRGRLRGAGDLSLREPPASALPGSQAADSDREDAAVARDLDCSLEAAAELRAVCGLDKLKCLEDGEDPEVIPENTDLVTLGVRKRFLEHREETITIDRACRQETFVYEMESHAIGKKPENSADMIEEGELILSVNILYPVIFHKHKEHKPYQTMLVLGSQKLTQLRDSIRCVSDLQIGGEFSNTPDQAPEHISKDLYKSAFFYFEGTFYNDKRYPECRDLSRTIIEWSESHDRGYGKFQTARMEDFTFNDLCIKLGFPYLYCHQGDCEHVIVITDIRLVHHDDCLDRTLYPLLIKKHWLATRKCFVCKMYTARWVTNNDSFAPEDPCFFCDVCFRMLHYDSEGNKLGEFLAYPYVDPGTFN
T1 sequence 3: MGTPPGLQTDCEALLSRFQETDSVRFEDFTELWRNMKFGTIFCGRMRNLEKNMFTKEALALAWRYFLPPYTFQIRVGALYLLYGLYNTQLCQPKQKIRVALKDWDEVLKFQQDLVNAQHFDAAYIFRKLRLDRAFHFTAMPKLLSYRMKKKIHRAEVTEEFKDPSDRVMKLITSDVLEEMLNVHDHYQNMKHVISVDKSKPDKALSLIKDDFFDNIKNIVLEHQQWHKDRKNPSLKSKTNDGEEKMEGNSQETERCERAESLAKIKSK
T1 sequence 4: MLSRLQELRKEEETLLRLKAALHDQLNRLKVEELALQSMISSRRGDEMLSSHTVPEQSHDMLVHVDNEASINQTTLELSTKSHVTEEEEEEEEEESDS

mSNAPc#2 SNAP50-R151A = target: T2, mSNAPc#2 SNAP50-R151A (Homo sapiens, UniProt Q5SXM2;Q92966;Q16533;O75971 1-505;1-411;1-268;1-98, R151A)
T2 sequence 1: T1 sequence 1
T2 sequence 2: T1 sequence 2 with R151A, A350W
T2 sequence 3: T1 sequence 3
T2 sequence 4: T1 sequence 4

mSNAPc#2 2Mu = target: T3, mSNAPc#2 2Mu (Homo sapiens, UniProt Q5SXM2;Q92966;Q16533;O75971 1-505;1-411;1-268;1-98, Y389A;R151A)
T3 sequence 1: T1 sequence 1 with Y389A
T3 sequence 2: T1 sequence 2 with R151A, A350W
T3 sequence 3: T1 sequence 3
T3 sequence 4: T1 sequence 4

B1: 25 bp hU6-1 PSE (SPR) (dsDNA)
DNA 1: TGCTTACCGTAACTTGAAAGTATTT
DNA 2: AAATACTTTCAAGTTACGGTAAGCA
- Kd (mSNAPc#2 SNAP50-W350A): 0.887 µM
- Kd (mSNAPc#2 SNAP50-R151A): 1.15 µM
- Kd (mSNAPc#2 2Mu): 1.62 µM
